Data: patent US20260137822A1

How the values were obtained:
[1] = biological target: human FOLR1 (recombinant antigen) (human) (UniProt P15328); test: BLI (Octet), construct captured on AHC biosensor, hFOLR1 as analyte
[2] = biological target: human FOLR1 (recombinant antigen) (human) (UniProt P15328); test: ELISA on hFOLR1
FOLR1 on OVCAR3 cells = FOLR1 on OVCAR3 cells (UniProt P15328); test: cell binding to FOLR1-positive OVCAR3 cells
[3] = biological target: FOLR1 on cells (OVCAR3, OV-90) (UniProt P15328); test: flow cytometry on FOLR1 expressing OV-90 cells, Geomeans RL1-H against Conc (nM) [top panel]
Chain of FOLR1 on cells (OVCAR3, OV-90) (P15328 25-234): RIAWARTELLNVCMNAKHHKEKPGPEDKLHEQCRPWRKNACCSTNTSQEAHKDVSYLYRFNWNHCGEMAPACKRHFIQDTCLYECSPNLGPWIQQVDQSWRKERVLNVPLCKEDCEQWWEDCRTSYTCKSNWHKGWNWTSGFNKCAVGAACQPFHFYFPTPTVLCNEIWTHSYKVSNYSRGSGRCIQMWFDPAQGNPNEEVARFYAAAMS

Chain of human FOLR1 (recombinant antigen) (human) (P15328 25-234 limits assumed): as the sequence (P15328 25-234) above
Chain of FOLR1 on OVCAR3 cells (P15328 25-234): as above

Binder	Kd [1]	koff [1]	kon [1]	EC50 [2]	EC50 (FOLR1 on OVCAR3 cells)	EC50 (read off the curve) [3]
Anti-FOLR1x4 GGGGSx3 (monospecific tetravalent VHH-VHH-Fc) (antibody, part only; not given: hinge and wild-type Fc, not shown: a dimerising Fc or GST) chain, part: QVQLVESGGGLVQPGGSLRLSCAASGFTVSNSVMAWYRQTPGNEREFVAIINSIGITNYADSVKGRFTISRDNSKNTLYLQMNSLRAEDTAVYVCNRNFDRIYWGQGTLVTVSSGGGGSGGGGSGGGGSQVQLVESGGGLVQPGGSLRLSCAASGFTVSNSVMAWYRQTPGNEREFVAIINSIGITNYADSVKGRFTISRDNSKNTLYLQMNSLRAEDTAVYVCNRNFDRIYWGQGTLVTVSS	2.86 nM	0.000953 s⁻¹	333000 M⁻¹ s⁻¹	0.12 nM	0.28 nM	
Anti-FOLR1x4 GGSx3 (monospecific tetravalent VHH-VHH-Fc) (antibody, part only; not given: hinge and wild-type Fc, not shown: a dimerising Fc or GST) chain, part: QVQLVESGGGLVQPGGSLRLSCAASGFTVSNSVMAWYRQTPGNEREFVAIINSIGITNYADSVKGRFTISRDNSKNTLYLQMNSLRAEDTAVYVCNRNFDRIYWGQGTLVTVSSGGSGGSGGSQVQLVESGGGLVQPGGSLRLSCAASGFTVSNSVMAWYRQTPGNEREFVAIINSIGITNYADSVKGRFTISRDNSKNTLYLQMNSLRAEDTAVYVCNRNFDRIYWGQGTLVTVSS	2.52 nM	0.00087 s⁻¹	345000 M⁻¹ s⁻¹	0.11 nM	0.49 nM	

Second part, the binder after the results:

Kd [1]	koff [1]	kon [1]	EC50 [2]	EC50 (FOLR1 on OVCAR3 cells)	EC50 (read off the curve) [3]	Binder
2.85 nM	0.000853 s⁻¹	299000 M⁻¹ s⁻¹	0.14 nM	0.81 nM		Anti-FOLR1x4 GGSx4 (monospecific tetravalent VHH-VHH-Fc) (antibody, part only; not given: hinge and wild-type Fc, not shown: a dimerising Fc or GST) chain, part: QVQLVESGGGLVQPGGSLRLSCAASGFTVSNSVMAWYRQTPGNEREFVAIINSIGITNYADSVKGRFTISRDNSKNTLYLQMNSLRAEDTAVYVCNRNFDRIYWGQGTLVTVSSGGSGGSGGSGGSQVQLVESGGGLVQPGGSLRLSCAASGFTVSNSVMAWYRQTPGNEREFVAIINSIGITNYADSVKGRFTISRDNSKNTLYLQMNSLRAEDTAVYVCNRNFDRIYWGQGTLVTVSS
			0.12 nM	0.71 nM	2 nM	Farletuzumab (antibody, INN chains, looked up, V domains shown) VH: EVQLVESGGGVVQPGRSLRLSCSASGFTFSGYGLSWVRQAPGKGLEWVAMISSGGSYTYYADSVKGRFAISRDNAKNTLFLQMDSLRPEDTGVYFCARHGDDPAWFAYWGQGTPVTVSS VL: DIQLTQSPSSLSASVGDRVTITCSVSSSISSNNLHWYQQKPGKAPKPWIYGTSNLASGVPSRFSGSGSGTDYTFTISSLQPEDIATYYCQQWSSYPYMYTFGQGTKVEIKR
